The source of these data is paper PMC9830397 (European Journal of Translational Myology, 2022).

For this assay, the target named is FITC-labelled human holo-transferrin (human, UniProt P02787 20-698, FITC label (position not given); holo form). Put plainly: solid-phase fluorescence binding assay.
Sequence of FITC-labelled human holo-transferrin (P02787 20-698): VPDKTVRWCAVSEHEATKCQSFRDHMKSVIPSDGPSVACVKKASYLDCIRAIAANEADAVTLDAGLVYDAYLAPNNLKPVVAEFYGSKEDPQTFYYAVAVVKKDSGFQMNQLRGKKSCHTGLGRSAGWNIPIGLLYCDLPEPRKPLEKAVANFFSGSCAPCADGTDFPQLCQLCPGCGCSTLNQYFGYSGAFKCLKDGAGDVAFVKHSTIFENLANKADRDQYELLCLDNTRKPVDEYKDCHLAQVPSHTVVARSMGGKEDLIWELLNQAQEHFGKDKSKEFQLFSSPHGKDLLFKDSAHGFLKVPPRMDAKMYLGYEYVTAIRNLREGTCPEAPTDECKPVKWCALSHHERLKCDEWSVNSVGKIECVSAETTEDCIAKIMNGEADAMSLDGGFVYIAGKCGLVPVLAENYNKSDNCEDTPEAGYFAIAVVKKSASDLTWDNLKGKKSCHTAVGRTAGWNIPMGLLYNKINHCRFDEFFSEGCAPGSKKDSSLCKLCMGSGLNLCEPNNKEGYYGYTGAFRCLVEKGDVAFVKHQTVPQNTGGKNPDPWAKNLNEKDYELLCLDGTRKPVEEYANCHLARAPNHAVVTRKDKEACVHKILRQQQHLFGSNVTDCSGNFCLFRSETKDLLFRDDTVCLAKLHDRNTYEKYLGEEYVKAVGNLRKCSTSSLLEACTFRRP

B1: immX3AVD (peptide)
peptide: KKGFYKKKQCRPSKGRKRGFCWAVD
modifications: biotinylated (position not given); labelled with streptavidin-Alexa 488 conjugate (SA488) in the nuclear receptor assay
On to B1, for which the binding result is given as “binds”.
